Results published in PMC12510807, “MUC1 drives ferroptosis resistance in ICC via Src‐mediated FSP1 deubiquitination and myristoylation” (Clinical and Translational Medicine, 2025).

Target: T1, recombinant Src (UniProt P12931 1-536)
T1 construct: the printed kinase domain limits 249-536 fit the 536-residue human protein; the tag on Src may differ between the three pull-downs; also called purified Src; source: recombinant, purified
Assay: pull-down; in vitro GST pull-down with recombinant or purified proteins; which partner bore GST is not told
Settings: both partners purified

binding result: binds
B1: purified NMT1 (enzyme, UniProt P30419 1-496, looked up)
chain: MADESETAVKPPAPPLPQMMEGNGNGHEHCSDCENEEDNSYNRGGLSPANDTGAKKKKKKQKKKKEKGSETDSAQDQPVKMNSLPAERIQEIQKAIELFSVGQGPAKTMEEASKRSYQFWDTQPVPKLGEVVNTHGPVEPDKDNIRQEPYTLPQGFTWDALDLGDRGVLKELYTLLNENYVEDDDNMFRFDYSPEFLLWALRPPGWLPQWHCGVRVVSSRKLVGFISAIPANIHIYDTEKKMVEINFLCVHKKLRSKRVAPVLIREITRRVHLEGIFQAVYTAGVVLPKPVGTCRYWHRSLNPRKLIEVKFSHLSRNMTMQRTMKLYRLPETPKTAGLRPMETKDIPVVHQLLTRYLKQFHLTPVMSQEEVEHWFYPQENIIDTFVVENANGEVTDFLSFYTLPSTIMNHPTHKSLKAAYSFYNVHTQTPLLDLMSDALVLAKMKGFDVFNALDLMENKTFLEKLKFGIGDGNLQYYLYNWKCPSMGAEKVGLVLQ
notes: Purified NMT1 protein of the GST pull-down with Src; source: purified
